We go through 116 sequences from the supplement of paper PMC10724198.

± gives the standard deviation of the averaged measurements.
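Further: PSI is a weighted mean of sequencing reads over stability bins, variants kept only with over 10 reads, mCherry proximal and sfGFP distal, peptide attached via GGGS linker.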

In the data set the test system is Saccharomyces cerevisiae. The data set can be described thus: protein stability index of tFT-peptide fusion (C-terminal peptide) (PSI (0-1 scale)); higher = more stable (slower turnover). The following applies: genetic background: wild type; temperature: 30 C.
Consider KHLIHSRLGICG, for which the protein stability index came to 0.6634 ± 0.0059.
Sequence KHRKSKEIRTAR gave a protein stability index of 0.6844 ± 0.0065.
Then KIGEVNKKQSII, with 0.743 ± 0.064; and KIIKKKKKNKEH, with 0.596 ± 0.055.
Then KIIRKNILRNEY, with 0.658 ± 0.018; and KIKNHQRQIMNT, with 0.494 ± 0.092.
For the sequence KIKTTKKIKKKK, the protein stability index stood at 0.681 ± 0.032.
Then KINKNMDYKYQK, with 0.673 ± 0.095; and KINPQKTEWARR, with 0.689 ± 0.024; and KKDIYRVGLKVR, with 0.618 ± 0.011.
Then KKDMCRSSFPDC, with 0.686 ± 0.007.
Then KKEIGGSNWNKK, with 0.632 ± 0.09.
For KKEKKKTKANKT, the protein stability index came to 0.679 ± 0.031.
Then KKEQPKEKQGNK, with 0.732 ± 0.053; and KKETKSNCRIKN, with 0.708 ± 0.017; and KKETRKKETKKE, with 0.685 ± 0.041.
KKETRRTNPEHK gave a protein stability index of 0.765 ± 0.11.
KKGGKEEPSRRK registered a protein stability index of 0.741 ± 0.084.
Then KKIKKKQKKKIQ, with 0.664 ± 0.071; and KKKELLTKKQKD, with 0.637 ± 0.021; and KKKENKNEKKKE, with 0.692 ± 0.06.
The value for KKKGWAKEKLKR was 0.75 ± 0.051; that for KKKKIKKNKKQL was 0.684 ± 0.01; that for KKKKKIKNKKKK was 0.741 ± 0.032.
Sequence KKKKKKEKGDST had a protein stability index of 0.716 ± 0.076.
Then KKKKKKKKKKQN, with 0.62 ± 0.039; and KKKKKKKKKNEK, with 0.755 ± 0.024; and KKKKKKKNKKKT, with 0.7142 ± 0.00095.
Then KKKKKKNSEKMK, with 0.704 ± 0.062; and KKKKKKQKHKKI, with 0.718 ± 0.033.
The value for KKKKKRKKEEKH was 0.721 ± 0.032.
KKKKKTQKKTKQ registered a protein stability index of 0.6818 ± 0.0029.
Then KKKKNKNEKPKK, with 0.746 ± 0.074; and KKKKNNKKKKIE, with 0.702 ± 0.015.
Then KKKKQKKKYKKT, with 0.695 ± 0.095; and KKKNEAKKKKTK, with 0.744 ± 0.058; and KKKQTKGNQKPK, with 0.7623 ± 0.0011.
Then KKKRKRREKKQN, with 0.681 ± 0.016.
KKKTKQTKVNKK yielded a protein stability index of 0.64 ± 0.072.
Then KKNCRKNQKEET, with 0.663 ± 0.067.
The value for KKNKKQDDKKRQ was 0.645 ± 0.039; that for KKNNTKKNRKRK was 0.7 ± 0.051.
Then KKQAVRVEIIGR, with 0.655 ± 0.018.
In turn, KKQKKKKTQTNK registered a protein stability index of 0.68224 ± 0.00034.
The value for KKQKSKSAREAS was 0.658 ± 0.024.
Then KKQQKTKEKTES, with 0.76 ± 0.031; and KKRKEIKNREEK, with 0.739 ± 0.035; and KKRKEKRKKNSI, with 0.647 ± 0.016.
Then KKRKGKGRDIRG, with 0.7025 ± 0.0016.
With KKRREKKYQHKI, the protein stability index came to 0.713 ± 0.039.
The value for KKRRTIKSQSKV was 0.6825 ± 0.0049; that for KKSKEKGTRRQR was 0.651 ± 0.073.
Consider KKSKKKSKNIRK, for which the protein stability index is 0.694 ± 0.028.
Sequence KKSNEKERATQQ registered a protein stability index of 0.708 ± 0.046.
The value for KKSVDKNKEIKL was 0.681 ± 0.12.
In the case of KKTRGNNGKTQR, the protein stability index was 0.631 ± 0.0076.
Then KKTSKTERDQKE, with 0.639 ± 0.015.
Then KKTTKKKRKKNK, with 0.657 ± 0.018.
Then KKTVKNNQNNTD, with 0.654 ± 0.041.
Sequence KKVKNQGLILRW displayed a protein stability index of 0.673 ± 0.035.
Then KKVTEKSKNEKR, with 0.692 ± 0.053; and KLEEKRKEMERK, with 0.7093 ± 0.007; and KLEERIKRTEDK, with 0.7219 ± 0.0018.
Sequence KLKIKREKKKRK had a protein stability index of 0.668 ± 0.019.
Then KLKIMEDQGKKK, with 0.706 ± 0.12; and KLPILDKKAVAQ, with 0.696 ± 0.03; and KLPPATPNSRPP, with 0.714 ± 0.2.
With KLPRPRHSDCPS, the protein stability index was 0.6505 ± 0.00069.
The value for KLQPVTTTQTIG was 0.6713 ± 0.004.
On to KNANLRLPWKAH, for which the protein stability index was 0.667 ± 0.029.
KNAQQYQKKQKQ had a protein stability index of 0.797 ± 0.056.
Then KNEIRLKEDIRC, with 0.718 ± 0.017.
The value for KNIKKKNKNDKK was 0.6936 ± 0.0063.
KNKKKNSRKKQQ yielded a protein stability index of 0.702 ± 0.0083.
KNMKTEDLLIVN returned a protein stability index of 0.727 ± 0.022.
The value for KNSWVLPPSPRS was 0.68 ± 0.04.
Then KNVHKDNRSVKK, with 0.677 ± 0.14; and KPGGQRTRTRRR, with 0.622 ± 0.025.
The value for KPSAKRRNLFKL was 0.699 ± 0.15.
In the case of KQAPTLFLSFIL, the protein stability index came to 0.5885 ± 0.0028.
The value for KQDTRRHIHTTK was 0.735 ± 0.092; that for KQEDIKNKKKKE was 0.679 ± 0.032; that for KQKKIGNKITNK was 0.667 ± 0.008.
The value for KQKKKKKEYKKK was 0.676 ± 0.027; that for KQKKNKNNHRKK was 0.761 ± 0.024.
Then KQKQNKIKITTQ, with 0.656 ± 0.0077.
Turning to KQKRKENIHIIK, the protein stability index is 0.776 ± 0.033.
For KQQRKNEKTNTL, the protein stability index is 0.658 ± 0.16.
Then KQSIKKKKIKKT, with 0.634 ± 0.017; and KRAREKDGKSAD, with 0.676 ± 0.032.
Then KRARLWQKRVEK, with 0.754 ± 0.14; and KREMESTTHSKT, with 0.5985 ± 0.0011; and KRFDKEWEIWRS, with 0.733 ± 0.023.
The value for KRGFSLKEARGF was 0.642 ± 0.008; that for KRGKNKKYKNRF was 0.638 ± 0.074.
Take KRGRAIVVQLWV: the protein stability index amounted to 0.578 ± 0.021.
The value for KRKDGVTAGVEG was 0.712 ± 0.017.
Then KRKETIRKKNQT, with 0.734 ± 0.05.
The value for KRKHHKREKKKK was 0.677 ± 0.042.
Regarding KRKKEKRKEERK, the protein stability index worked out at 0.779 ± 0.011.
The value for KRKKIQNRGKKK was 0.718 ± 0.0086; that for KRRAERKKRSKG was 0.6731 ± 0.006; that for KRRRYKEKPRKR was 0.665 ± 0.12.
Then KRWKSKYELGST, with 0.68 ± 0.063; and KRYRKGGRPMRA, with 0.66 ± 0.06.
The value for KSARSYSMEGEI was 0.673 ± 0.016; that for KSFQLEHKYTRN was 0.737 ± 0.029; that for KSGGWLWGGGGG was 0.663 ± 0.054.
The sequence KSGHYVVSYSGV displayed a protein stability index of 0.678 ± 0.0045.
The value for KSPDSLDIRFHT was 0.714 ± 0.13; that for KSQATELKKVNG was 0.65 ± 0.037; that for KSRGYSKQQIRG was 0.72 ± 0.015.
The value for KSSNYSTEDVKI was 0.697 ± 0.014; that for KSSSVRQGWEGC was 0.728 ± 0.081; that for KTGATAIKKINK was 0.695 ± 0.039.
Then KTKEYKYEKRKT, with 0.596 ± 0.027.
